# Assay: soluble on expression in E. coli; label from the status in PepcDB or PDB records
row,Sequence,soluble on expression in E. coli
1,GPGSMQVINENSLREFYAHVYPVELVTQWLSYRLSQPRLSAGSSVAVVKGEPTAVSGEESKDGVRHVLGIKAEPCDAVGAAAGADDEDKEWLNGKGAAAAEGYLARREFCFTLIGDIFTRFRSYRSSEELRAELVRCFPEKIDVGAVYNIRPNQKQGLANVFPVERELVFDIDMSDYDNVRSCCSGKSICSYCWAWMSCAAHVLHTVLRDDFGFKYILPVFSGRRGIHLWVCDRRARRMTNDERTALVGYLTVVAPKTLRSTIVADLANHRLIHPTIRHVLRTQLDRAFTSLFVASSSDNPNNIQHHPTAAYIVHDATSAVLKLGRRDALNRFQQHVHFQQGNVLDWATYLRALGSEQEATDILHAVQLLLMYPRLDEHVSTRRDHLLKLPFCVHPGTASLCCPLEWDEVDGFHPTEDAPKLHEMLLSRSLDVRWTLPLERMLKDMRTDEDENSS,not soluble
2,MTQTASLFLQDSYREECLARITDVVEDGLLLDQTVFYPQGGGQAGDSGWLTLADGTRLRIADTRKGTEAGAGRDAILHIPAEGQATVLRAMKPGEVVLAQIDWVRRYRHMRLHTAAHMLCAVLPYPVNGCSITDEHARLDFVTSEPLSREAIDSALAAMVEAAHPVSIDTMSDDALRARPDLVRTMSVQPPMGAGQVRLVSIKDTDLQPCGGTHVANTEEVGVVRVSKMEKKSARTRRVVLVLG,not soluble
3,MASEQEKTADFGFRTVAKDEKEVMVAEVFHSVAAKYDLMNDLMSFGIHRIWKRFTIECSGVRRNQRVLDLAGGTGDLTAKFSRMVGEGGEVILADINASMLKVGREKLRNKGIIDNINYVQANAEALPFPDDFFDCITISFGLRNVTDKNKALRSMYRVLKPGGRLLVLEFSKPVIKQLSTIYDAYSFHILPRIGEAVASDAGSYRYLAESIRMHPDQETLKGMMSDAGFDSVNYFNLTGGIVALHRGFKFLEHHHHHH,not soluble
4,MAKVVVLGAGVSGHTCASFLKKKLGKQHEVVVISPNSYYQWIPSNIWVGVGHMTIDDVRFKLKKVYDRWGIDYKQAKAVSIHPEGDANISKGYVTIEYTDEEHAGYTETVDYDYLVNATGPKLNFEATEGLGPDKNSLSVCTYSHAAHAWEELQKSIEKMKNGQKQRFLIGTGHAMATCQGAAFEYILNVAHEISRRGLSHMAELTWISNEYELGDFGMGGAFIKRGGYITPTKVFTESLLAEYGIKWIRRAGVYKVEPGVAHYETLDGEMLSQEFDFAMLIPSFSGVGLTAFDKSGNDITDKMFLPNKFMKVDADYTAKPFGEWGANDWPTIYQTPMYSNIYAAGIAFAPPHSISKPMTSVNGRQIFPTPPRTGMPSGVIGKIIALNISEQIKGNHKEHHHKASMARMGAACIVSAGFGSFDGLGASMTVFPIVPDWEKYPEWGRDMTYSVGEVGLAGHWLKFMLHYLFFHKAKGYPFWYLIPELEHHHHHH,not soluble
5,VDLSDEEKDSIYMFASLVEKMKSRPLNEILEDSKLQNLAQRVFASKARLNYALNDKAQKYNTLIEMNGKISEIMNIYDRLLEQQLQSINLS,soluble
6,MGHHHHHHSHMMQSVDVVIIGGGMVGLALAAALKESDLRIAVVENQLPEEALNPLPDVRVSALSRSSEIVLRNLNAWAGIEARRAAPYIAMEVWEQDSFARIEFKANEMTQPNLGHIVENRVIQLALFEQVQQQANVTLHVPATCQSIAVGESEAWLTLSNGQALSAKLVVGADGANSWLRRQMDIPLTHWDYGHSALVANVRTSDPHNKVARQIFTAQGPLAFLPMSEPHMSSIVWSTEPSRAEALLNMNDVQFNKALTAEFDARLGRCEVVGERQAFPLKMRYARDFVAPRVALVGDAAHTIHPLAGQGVNLGLLDAACLAQELLSLWQQNRDIGDERNLRHYERWRKAEAAKMIAAMQGFRDLFEGDNPAKKLIRGIGMRLVGQLPGAKDEIMKRALGLKGDLPELAKQVWLERAY,soluble
7,MGSDKIHHHHHHMDDGELEEVFFDEIETIAGKIYLGRIEKIVPGLEAAFVKIGKGRNAFLKLSEINEAYRKTVLKGQEVKEGQKILVQVKKDASGKKGPQVTPQIGIADRFVVIFPFKKVIGVSRKIEDASERRRLRTIAFSLRKKYGVGVIMRTAAEGVDEEEIIKNFERALEKWNQVLQKFRRSRKPKLLYEEDPVEQIIKEKVNSKIDKLIYNDRSLLETLQKYLQNLPKKPEIEYVEGDLFEKFSVYERLKKLLSRTVPLKSGGNIVIDRTEALTVIDVNSESYTDAENQEELALKTNMEAIEEIVRQLILRNIGGIVVIDFIKQKDPKSYEKLLSRFKEVAKRDGTRIEIFGFTNLGLLEITRKRTTRPLDTLLFTRCPVCSGTGKVLSQKILLKRIREDLKKLKDFEEVTLKVHPNMSGYFKREDIKKLQKEFKVKLNLDYGWHDPNSYEIKAKTKKGGK,not soluble

# — the DeepSol protein solubility set
